# From US20190271704
# T1: NE nanosensor with pentafluoropropylamine reporter (peptide-PFC conjugated to a 40 kDa 8-arm PEG scaffold)
# T1 chain: CKKKXXXX
# T2: NE peptide substrate with acetylated N-terminal CKKK-PEG4 linker and C-terminal heptafluorobutylamine reporter (peptide-PFC) (not fully specified)
# T2 chain: CKKKXXXX
# T3: NE peptide substrate with acetylated N-terminal CKKK-PEG4 linker and C-terminal pentafluoropropylamine reporter (peptide-PFC) (not fully specified)
# T3 chain: CKKKXXXX
# T4: NE nanosensor with heptafluorobutylamine reporter (peptide-PFC conjugated to a 40 kDa 8-arm PEG scaffold)
# T4 chain: CKKKXXXX
# Assays:
# [1] = molecular target: T1, NE nanosensor with …
# [2] = molecular target: T2, NE peptide substrate with acetylated …
# [3] = molecular target: T3, NE peptide substrate with acetylated …
# [4] = molecular target: T4, NE nanosensor with …
protein,measurement,setting,value
neutrophil elastase (NE) (protein) IVGGRRARPHAWPFMVSLQLRGGHFCGATLIAPNFVMSAAHCVANVNVRAVRVVLGAHNLSRREPTRQVFAVQRIFENGYDPVNLLNDIVILQLNGSATINANVQVAQLPAQGRRLGNGVQCLAMGWGLLGRNRGIASVLQELNVTVVTSLCRRSNVCTLVRGRQAGVCFGDSGSPLVCNGLIHGIASFVRGGCASGLYPDAFAPVAQFVNWIDSIIQ,kcat/Km (Michaelis-Menten kinetics of substrate cleavage),[1],kcat/Km values were on the order of 10^5 M^-1s-^-1
same,PFC release from the peptide substrate (real-time vapor analysis mass spectrometry),[2],cleaved specifically by NE
same,PFC release from the peptide substrate (real-time vapor analysis mass spectrometry),[3],cleaved specifically by NE
same,kcat/Km (Michaelis-Menten kinetics of substrate cleavage),[4],kcat/Km values were on the order of 10^5 M^-1s-^-1
